Assay results reported in US7422862B2, “Methods for identifying modulators of apoptosis” (The Burnham Institute, priority 2001, dated 2008).

Key:
Bcl-B = molecular target: T1, Bcl-B (Homo sapiens, UniProt Q9HD36); assay: Co-immunoprecipitation with Bcl-2 family proteins in HEK293T cells; assay type: binding
T1 construct: expressed in transfected cells; host or cells: HEK293T
T1 sequence (Q9HD36 1-204): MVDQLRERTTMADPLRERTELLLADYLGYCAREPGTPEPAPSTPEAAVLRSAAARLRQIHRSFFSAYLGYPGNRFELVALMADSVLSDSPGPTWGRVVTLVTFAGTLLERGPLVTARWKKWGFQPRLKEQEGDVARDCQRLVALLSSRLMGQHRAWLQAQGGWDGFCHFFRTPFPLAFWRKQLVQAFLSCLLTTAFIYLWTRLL
Source text: (§1) (A) HEK293T cells were transfected with pcDNA3-myc plasmids encoding Bax or other Bcl-2 family proteins with GFP, GFP-HN, or GFP-HN(C8P). Cell lysates were immunoprecipitated with polyclonal anti-GFP antibody. The immunoprecipitates or the lysates were blotted with anti-myc or anti-GFP antibodies, respectively. The slower migrating form of GFP seen in lane 1 (asterisk)represents an alternative form of GFP produced from the wild-type (control) p-EGFP-Cl plasmid (http://clonotech.com). (B) Testes of three-week-old mice were homogenized in lysis buffer (0.1% Triton X-100, 50 mM Tris-HCl, pH7.5, 1 mM EDTA, plus protease inhibitor cocktail). The lysates were immunoprecipitated with control rabbit serum or polyclonal anti-mouse Bax antibody. The immunoprecipitates or the lysates were subjected to electrophoresis in Tris/Tricine gels (16% T, 3% C), electroblotted to PVDF membrane, and immunoblotted with polyclonal anti-HN antibody or monoclonal anti-Bax antibody 6A7 (Trevigen). (C) The affinity (Kd) of Bax/HN interaction was measured by fluorescence polarization assay, using various concentrations of purified recombinant Bax and 40 nM rhodamine-conjugated HN peptide. Control peptide from CD40 is also shown (mean +Std Dev; n=3).
(§2) Furthermore, multiple Bcl-2 family proteins were surveyed for interactions with Humanin by coimmunoprecipitation experiments (FIG. 5A).
(§3) Immunoblotting and immunoprecipitations were performed as follows. Immunoblotting was performed as described previously (Fields and Song, Nature 340:245-246 (1989)). For co-immunoprecipitations, cells were cultured in 50 uM […] Valine Alanine Asparate fluoromethyl-ketone (zVAD-fmk) to prevent apoptosis. Cells were suspended in lysis buffer (50 mM Tris-HCl, pH7.4; 150 mM NaCl; 20 mM EDTA; 50 mM NaF; 0.5% NP-40; 0.1 mM Na3VO4; 20 ug/ml Leupeptin; 20 ug/ml Aprotinin; 1 mM DTT; and 1 mM PMSF). Lysates (200 ul diluted in 1 ml final volume of lysis buffer) were cleared by incubation with 15 ul of protein G-Sepharose 4B (Zymed) and then incubated with 15 ul of polyclonal antibody and 15 ul of protein G at 4° C. overnight. Beads were then washed 4 times with 1.5 mls lysis buffer before boiling in Laemmli sample buffer and performing SDS-PAGE/immunoblotting.

Bcl-2 = Bcl-2 (Homo sapiens, UniProt P10415); assay: as above; assay type: binding
Bcl-2, sequence (P10415 whole entry, species assumed): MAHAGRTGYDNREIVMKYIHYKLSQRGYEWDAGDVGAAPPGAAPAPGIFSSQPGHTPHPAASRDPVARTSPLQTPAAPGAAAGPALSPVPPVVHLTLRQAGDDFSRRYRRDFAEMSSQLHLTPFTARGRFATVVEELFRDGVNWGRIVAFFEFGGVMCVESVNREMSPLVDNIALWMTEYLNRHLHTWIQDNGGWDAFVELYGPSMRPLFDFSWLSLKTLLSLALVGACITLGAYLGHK
Source text: as §1, §2, §3

Bcl-XL = Bcl-XL (Homo sapiens, UniProt Q07817); assay: as above; assay type: binding
Bcl-XL, sequence (Q07817 whole entry, species assumed): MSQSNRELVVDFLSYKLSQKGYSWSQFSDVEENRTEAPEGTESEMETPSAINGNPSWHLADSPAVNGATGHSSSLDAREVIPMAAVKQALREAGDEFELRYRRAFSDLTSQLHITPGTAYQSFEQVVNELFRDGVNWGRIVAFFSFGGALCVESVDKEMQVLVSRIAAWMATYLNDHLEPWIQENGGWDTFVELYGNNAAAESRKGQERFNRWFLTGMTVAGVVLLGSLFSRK
Source text: as §1, §2, §3

Bax = Bax (Homo sapiens, UniProt Q07812); assay: Suppression of apoptosis induced by Bax over-expression (Humanin mutants); assay type: cell-based; parameters: expressed in transfected cells; host or cells: HEK293T; details: GFP-fusion polypeptides, 3:1 ratio of HN:Bax plasmid DNA
Bax, sequence (Q07812 whole entry, species assumed, the tested form may be a part): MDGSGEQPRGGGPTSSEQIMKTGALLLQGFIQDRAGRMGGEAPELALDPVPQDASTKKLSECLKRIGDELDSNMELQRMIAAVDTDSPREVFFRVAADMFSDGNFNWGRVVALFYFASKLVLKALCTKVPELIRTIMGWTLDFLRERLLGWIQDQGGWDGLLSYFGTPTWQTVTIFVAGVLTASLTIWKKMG
Experimental: Apoptosis assays were performed as follows. Both floating and adherent cells (after trypsinization) were collected 48 hr after transfection, fixed, and stained using 4′,6-diamidine-2′-phenylindole dihydrochloride (DAPI) for assessing apoptosis based on nuclear fragmentation and chromatin condensation (Fields and Song, supra (1989)).
In order to explore whether a correlation exists between Humanin binding to Bax and Humanin-mediated suppression of apoptosis, Bax was co-expressed with various GFP-fusion polypeptides encoding wild-type, full-length Humanin or various truncation and site-specific mutants of Humanin (Table 1). Expression of all GFP-fusion polypeptides was confirmed by immunoblotting, and ability to bind Bax was determined by co-immunoprecipitation assay. Each Humanin mutant was scored for ability to suppress apoptosis induced by Bax over-expression by >50% using a 3:1 ratio of HN:Bax plasmid DNA. […] Based on these studies, an active region of the 24 amino-acid Humanin peptide, mapped to residues 7-17.
Cell culture and transfections were performed as follows. CSM14.1, HCT116, Cos-7, and SF268 cells were cultured in DMEM high glucose media (Irvine Scientific, Santa Ana, Calif.) containing 10% fetal bovine serum (FBS). PC-3 cells were cultured with RPMI 1640 media containing 10% FBS. Transfection of cells was performed using SuperFect (Qiagen, Chatsworth, Calif.) or LipofectaminePLUS reagent ([…]).

Bax (S184K) = molecular target: T2, Bax (S184K) (Mus musculus, UniProt Q07813, S184K); assay: Yeast two-hybrid assay; assay type: binding; details: EGY48 cells, pGilda-Bax (S184K) and pYESTrp-Humanin
T2 construct: expressed in transfected cells; host or cells: S. cerevisiae EGY48
T2 sequence (Q07813 whole entry S184K): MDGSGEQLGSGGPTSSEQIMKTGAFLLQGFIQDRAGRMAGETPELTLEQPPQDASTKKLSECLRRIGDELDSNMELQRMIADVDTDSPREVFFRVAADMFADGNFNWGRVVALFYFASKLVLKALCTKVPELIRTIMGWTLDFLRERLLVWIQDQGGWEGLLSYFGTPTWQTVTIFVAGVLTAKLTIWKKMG
Source text: A yeast two-hybrid system is designed to screen a cDNA library for a gene encoding a polypeptide that interacts with a known target (bait) polypeptide (Golemis, et al., In Current Protocols in Molecular Biology, John Wiley & Sons, Inc., Ch.20.0 and 20.1.(1996); Mendelsohn and Brent, Current Opinion in Biotechnology 5:482-486 (1994)). In this experiment, a S184K (a serine at position 184 in the transmembrane domain mutated to a lysine) mutant of mouse Bax was used as a bait, since the wild type Bax induces cell death in yeast.
Bax (S184K) cDNA was constructed in a pgilda yeast expression vector at EcoRV Xhol sites, producing a LexA-Bax fusion polypeptide. The prokaryotic LexA polypeptide, which functions as the DNA binding domain and binds to LexA operators, was used. A human adult testes cDNA library in a pYESTrp vector was purchased from Invitrogen. This library contains library cDNA fused with a B42 transcription activation domain (an 88-residue acidic E. coli peptide). The pGilda-Bax (S184K) and cDNA library plasmids were co-transfected into EGY48 yeast cells together with a reporter plasmid pSH18-34. The transformants were cultured on leucine-deficient galactose-containing media, which induces gene expression through the GAL1 promoter located within both the pGilda and pYESTrp vectors. […]

| co-immunoprecipitation with Bcl-B (Bcl-B) | co-immunoprecipitation with Bcl-2 (Bcl-2) | co-immunoprecipitation with Bcl-XL (Bcl-XL) | Substance | Bax suppression (Bax) | yeast growth on Leu-deficient media (two-hybrid interaction) (Bax (S184K)) |
| --- | --- | --- | --- | --- | --- |
| did not co-immunoprecipitate | did not co-immunoprecipitate | did not co-immunoprecipitate | GFP-HN: Wild-type full-length Humanin fused to Green Fluorescent Protein | + (ability to suppress apoptosis induced by Bax over-expression by >50%) | – |
| – | – | – | Humanin: 24 amino acid polypeptide, cytosolic form of human Humanin (SEQ ID NO:2); used as synthetic peptide or expressed fusion | – | grew on Leu-media |
